The source of these data is the supplement of paper PMC11908140.

B1: library; numbered along this chain (parent)
chain: MRKPRAAVGSGHRKQAASQEGRQKHAKNNSQAKPSACDGLARQPEEVVLQASVSSYHLFRDVAEVTAFRGSLLSWYDQEKRDLPWRRRAEDEMDLDRRAYAVWVSEVMLQQTQVATVINYYTGWMQKWPTLQDLASASLEEVNQLWAGLGYYSRGRRLQEGARKVVEELGGHMPRTAETLQQLLPGVGRYTAGAIASIAFGQATGVVDGNVARVLCRVRAIGADPSSTLVSQQLWGLAQQLVDPARPGDFNQAAMELGATVCTPQRPLCSQCPVESLCRARQRVEQEQLLASGSLSGSPDVEECAPNTGQCHLCLPPSEPWDQTLGVVNFPRKASRKPPREESSATCVLEQPGALGAQILLVQRPNSGLLAGLWEFPSVTWEPSEQLQRKALLQELQRWAGPLPATHLRHLGEVVHTFSHIKLTYQVYGLALEGQTPVTTVPPGARWLTQEEFHTAAVSTAMKKVFRVYQGQQPGTCMGSKRSQVSSPCSRKKPRMGQQVLDNFFRSHISTDAHSLNSAAQ

Variants of B1 are the subject of the data set. Put plainly: 8OG:A repair function score (normalized; synonymous = 0, nonsense = -1) (normalized log-likelihood score); higher = more repair activity (WT-like). The settings on record: with 8OG:A DNA repair reporter (GFP) in HEK-293 MUTYH KO cells. The procedure: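 Saturation mutagenesis (NNN codon scan) of the MUTYH cDNA (521-aa nuclear isoform NM_001048174.1 / NP_001041639), stably expressed under doxycycline induction in HEK-293 MUTYH knockout cells. Cells were co-transfected with an 8OG:A-bearing GFP repair reporter plus mCherry and sorted 72 h later into GFP+ and GFP− bins, three replicates per tile. The Rosace log2 enrichment (GFP+ vs GFP−) was converted per tile to a normalized function score with synonymous variants centered at 0 and nonsense variants (codons 1-471) at -1; low-abundance variants were removed.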
As to MRKPRAAVGSGHRKQAASQEGRQKHAKNNSQAKPSACDGLARQPEEVVLQASVSSYHLFRDVAEVTAFRGSLLSWYDQEKRDLPWRRRAEDEMDLDREAYAVWVSEVMLQQTQVATVINYYTGWMQKWPTLQDLASASLEEVNQLWAGLGYYSRGRRLQEGARKVVEELGGHMPRTAETLQQLLPGVGRYTAGAIASIAFGQATGVVDGNVARVLCRVRAIGADPSSTLVSQQLWGLAQQLVDPARPGDFNQAAMELGATVCTPQRPLCSQCPVESLCRARQRVEQEQLLASGSLSGSPDVEECAPNTGQCHLCLPPSEPWDQTLGVVNFPRKASRKPPREESSATCVLEQPGALGAQILLVQRPNSGLLAGLWEFPSVTWEPSEQLQRKALLQELQRWAGPLPATHLRHLGEVVHTFSHIKLTYQVYGLALEGQTPVTTVPPGARWLTQEEFHTAAVSTAMKKVFRVYQGQQPGTCMGSKRSQVSSPCSRKKPRMGQQVLDNFFRSHISTDAHSLNSAAQ [R98E], the “8OG:A repair function score” value is -0.275.
As for MRKPRAAVGSGHRKQAASQEGRQKHAKNNSQAKPSACDGLARQPEEVVLQASVSSYHLFRDVAEVTAFRGSLLSWYDQEKRDLPWRRRAEDEMDLDRGAYAVWVSEVMLQQTQVATVINYYTGWMQKWPTLQDLASASLEEVNQLWAGLGYYSRGRRLQEGARKVVEELGGHMPRTAETLQQLLPGVGRYTAGAIASIAFGQATGVVDGNVARVLCRVRAIGADPSSTLVSQQLWGLAQQLVDPARPGDFNQAAMELGATVCTPQRPLCSQCPVESLCRARQRVEQEQLLASGSLSGSPDVEECAPNTGQCHLCLPPSEPWDQTLGVVNFPRKASRKPPREESSATCVLEQPGALGAQILLVQRPNSGLLAGLWEFPSVTWEPSEQLQRKALLQELQRWAGPLPATHLRHLGEVVHTFSHIKLTYQVYGLALEGQTPVTTVPPGARWLTQEEFHTAAVSTAMKKVFRVYQGQQPGTCMGSKRSQVSSPCSRKKPRMGQQVLDNFFRSHISTDAHSLNSAAQ [R98G], the “8OG:A repair function score” value is -0.574.
Regarding MRKPRAAVGSGHRKQAASQEGRQKHAKNNSQAKPSACDGLARQPEEVVLQASVSSYHLFRDVAEVTAFRGSLLSWYDQEKRDLPWRRRAEDEMDLDRCAYAVWVSEVMLQQTQVATVINYYTGWMQKWPTLQDLASASLEEVNQLWAGLGYYSRGRRLQEGARKVVEELGGHMPRTAETLQQLLPGVGRYTAGAIASIAFGQATGVVDGNVARVLCRVRAIGADPSSTLVSQQLWGLAQQLVDPARPGDFNQAAMELGATVCTPQRPLCSQCPVESLCRARQRVEQEQLLASGSLSGSPDVEECAPNTGQCHLCLPPSEPWDQTLGVVNFPRKASRKPPREESSATCVLEQPGALGAQILLVQRPNSGLLAGLWEFPSVTWEPSEQLQRKALLQELQRWAGPLPATHLRHLGEVVHTFSHIKLTYQVYGLALEGQTPVTTVPPGARWLTQEEFHTAAVSTAMKKVFRVYQGQQPGTCMGSKRSQVSSPCSRKKPRMGQQVLDNFFRSHISTDAHSLNSAAQ [R98C], the “8OG:A repair function score” value was -0.578.
For MRKPRAAVGSGHRKQAASQEGRQKHAKNNSQAKPSACDGLARQPEEVVLQASVSSYHLFRDVAEVTAFRGSLLSWYDQEKRDLPWRRRAEDEMDLDRDAYAVWVSEVMLQQTQVATVINYYTGWMQKWPTLQDLASASLEEVNQLWAGLGYYSRGRRLQEGARKVVEELGGHMPRTAETLQQLLPGVGRYTAGAIASIAFGQATGVVDGNVARVLCRVRAIGADPSSTLVSQQLWGLAQQLVDPARPGDFNQAAMELGATVCTPQRPLCSQCPVESLCRARQRVEQEQLLASGSLSGSPDVEECAPNTGQCHLCLPPSEPWDQTLGVVNFPRKASRKPPREESSATCVLEQPGALGAQILLVQRPNSGLLAGLWEFPSVTWEPSEQLQRKALLQELQRWAGPLPATHLRHLGEVVHTFSHIKLTYQVYGLALEGQTPVTTVPPGARWLTQEEFHTAAVSTAMKKVFRVYQGQQPGTCMGSKRSQVSSPCSRKKPRMGQQVLDNFFRSHISTDAHSLNSAAQ [R98D], the “8OG:A repair function score” value is -0.438.
For MRKPRAAVGSGHRKQAASQEGRQKHAKNNSQAKPSACDGLARQPEEVVLQASVSSYHLFRDVAEVTAFRGSLLSWYDQEKRDLPWRRRAEDEMDLDRAAYAVWVSEVMLQQTQVATVINYYTGWMQKWPTLQDLASASLEEVNQLWAGLGYYSRGRRLQEGARKVVEELGGHMPRTAETLQQLLPGVGRYTAGAIASIAFGQATGVVDGNVARVLCRVRAIGADPSSTLVSQQLWGLAQQLVDPARPGDFNQAAMELGATVCTPQRPLCSQCPVESLCRARQRVEQEQLLASGSLSGSPDVEECAPNTGQCHLCLPPSEPWDQTLGVVNFPRKASRKPPREESSATCVLEQPGALGAQILLVQRPNSGLLAGLWEFPSVTWEPSEQLQRKALLQELQRWAGPLPATHLRHLGEVVHTFSHIKLTYQVYGLALEGQTPVTTVPPGARWLTQEEFHTAAVSTAMKKVFRVYQGQQPGTCMGSKRSQVSSPCSRKKPRMGQQVLDNFFRSHISTDAHSLNSAAQ [R98A] the value was -0.175; for MRKPRAAVGSGHRKQAASQEGRQKHAKNNSQAKPSACDGLARQPEEVVLQASVSSYHLFRDVAEVTAFRGSLLSWYDQEKRDLPWRRRAEDEMDLDRFAYAVWVSEVMLQQTQVATVINYYTGWMQKWPTLQDLASASLEEVNQLWAGLGYYSRGRRLQEGARKVVEELGGHMPRTAETLQQLLPGVGRYTAGAIASIAFGQATGVVDGNVARVLCRVRAIGADPSSTLVSQQLWGLAQQLVDPARPGDFNQAAMELGATVCTPQRPLCSQCPVESLCRARQRVEQEQLLASGSLSGSPDVEECAPNTGQCHLCLPPSEPWDQTLGVVNFPRKASRKPPREESSATCVLEQPGALGAQILLVQRPNSGLLAGLWEFPSVTWEPSEQLQRKALLQELQRWAGPLPATHLRHLGEVVHTFSHIKLTYQVYGLALEGQTPVTTVPPGARWLTQEEFHTAAVSTAMKKVFRVYQGQQPGTCMGSKRSQVSSPCSRKKPRMGQQVLDNFFRSHISTDAHSLNSAAQ [R98F], -0.114.
